From patent US20150344570A1 (published 2015)

Experiments:
FcγRIIIa [1] = biological target: T1, FcγRIIIa (human, UniProt P08637 17-208); assay: ratio of SPR KDs: KD of GpH7-G1d/GpL16-k0 divided by KD of this antibody
T1 construct: extracellular domain; also called FcgRIIIa; CD16A; not shown: His tag attached to the C terminus
Protocol: (§1) The prepared antibodies were compared for the FcγRIIIa-binding activity using, as an indicator, KD for FcγRIIIa that was determined according to the method described in Reference Example 2.
(§2) Analysis of interaction between objective antibody and the FcγR was carried out using Biacore T100 (GE Healthcare). HBS-EP+ (GE Healthcare) was used as the running buffer, and the measurement temperature was set to 25° C. Chips produced by immobilizing the antigen peptide by the amine coupling method to a Series S Sencor Chip CM5 (GE Healthcare), or alternatively, chips produced by allowing preliminarily biotinylated antigen peptides to interact with and immobilize onto a Series S Sensor Chip SA (certified) (GE Healthcare) were used. Antibodies of interest were captured onto an antigen peptide-immobilized chip, and allowed to interact to each FcγR diluted with running buffer. To regenerate and repeatedly use the chip, the antibodies captured on the chip were washed off by reacting 10 mM glycine-HCl, pH 1.5.
(§3) Specifically, to calculate association rate constant ka (L/mol/s) and dissociation rate constant kd (1/s), sensorgrams obtained by measurement were processed for global fitting by Biacore Evaluation Software using 1:1 Langmuir binding model and dissociation constant KD (mol/1) was calculated from the resulting values.

FcγRIIIa [2] = biological target: T1, FcγRIIIa; assay: ratio of SPR KDs: KD of GpH7-A5/GpH7-B3/GpL16-k0 divided by KD of this antibody
Protocol: as §1, §2, §3

FcγRIIIa [3] = biological target: T1, FcγRIIIa; assay: SPR (Biacore), antibody captured on antigen-peptide chip, FcγR as analyte; relative binding amount
Protocol: Specifically, GpH7-TA7 and GpH7-TA45 (SEQ ID NO: 32) resulting from the introduction of L234Y, G236W, and S298A into GpH7-A5 and GpH7-B3, respectively, were prepared according to the method described in Reference Example 1. […] These antibodies were compared for the FcγRIIIa binding according to the method described in Reference Example 2 (Table 10).
as §2

FcγRIIIa [4] = biological target: T1, FcγRIIIa; assay: as above; remark: listed apart in the source
Protocol: GpH7-TA8 (SEQ ID NO: 33) and GpH7-B12 (SEQ ID NO: 12) resulting from the introduction of P329R into GpH7-TA7 and GpH7-B3, respectively, were prepared according to the method described in Reference Example 1.
as §2

T1 sequence (P08637 17-208): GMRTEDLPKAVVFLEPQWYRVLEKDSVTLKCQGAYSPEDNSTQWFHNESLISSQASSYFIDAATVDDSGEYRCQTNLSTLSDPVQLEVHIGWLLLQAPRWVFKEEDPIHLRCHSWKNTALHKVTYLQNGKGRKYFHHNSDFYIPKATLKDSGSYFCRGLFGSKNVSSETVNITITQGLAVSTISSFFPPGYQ

Row | Binder | KD ratio 1 (FcγRIIIa [1]) | KD ratio 2 (FcγRIIIa [2]) | FcγR BINDING ACTIVITY (relative FcγRIIIa binding) (FcγRIIIa [3]) | FcγRIIIa BINDING ACTIVITY (relative) (FcγRIIIa [4])
1 | GpH7-A5/GpH7-B3/GpL16-k0 (antibody, human IgG1, kappa, also called HeCon Ab; control heterodimerized antibody) heavy 1: not shown heavy 2: not shown light: DIVMTQSPLSLPVTPGEPASISCQASESLVHSNRNTYLHWYLQKPGQSPQLLIYKVSNRFSGVPDRFSGSGSGTDFTLKISRVEAEDVGVYYCSQNTHVPPTFGQGTKVEIERTVAAPSVFIFPPSDEQLKSGTASVVCLLNNFYPREAKVQWKVDNALQSGNSQESVTEQDSKDSTYSLSSTLTLSKADYEKHKVYACEVTHQGLSSPVTKSFNRGEC | 0.75 fold | 1 fold | 100 relative, GpH7-A5/GpH7-B3/GpL16-k0 = 100 | 100 relative, GpH7-A5/GpH7-B3/GpL16-k0 = 100
2 | GpH7-TA8/GpH7-B3/GpL16-k0 (antibody, human IgG1, kappa, Anti-glypican-3 IgG1 heterodimer; L234Y/G236W/S298A/P329R all in H1) heavy 1: QVQLVQSGAEVKKPGASVTVSCKASGYTFTDYEMHWIRQPPGEGLEWIGAIDPKTGDTAYSESFQDRVTLTADKSTSTAYMELSSLTSEDTAVYYCTRFYSYTYWGQGTLVTVSSASTKGPSVFPLAPSSKSTSGGTAALGCLVKDYFPEPVTVSWNSGALTSGVHTFPAVLQSSGLYSLSSVVTVPSSSLGTQTYICNVNHKPSNTKVDKKVEPKSCDKTHTCPPCPAPEYLWGPSVFLFPPKPKDTLMISRTPEVTCVVVDVSHEDPEVKFNWYVDGVEVHNAKTKPREEQYNATYRVVSVLTVLHQDWLNGKEYKCKVSNKALRAPIEKTISKAKGQPREPQVYTLPPSRKELTKNQVSLTCLVKGFYPSDIAVEWESNGQPENNYKTTPPVLDSDGSFFLYSKLTVDKSRWQQGNVFSCSVMHEALHNRYTQKSLSLSP heavy 2: not shown light: DIVMTQSPLSLPVTPGEPASISCQASESLVHSNRNTYLHWYLQKPGQSPQLLIYKVSNRFSGVPDRFSGSGSGTDFTLKISRVEAEDVGVYYCSQNTHVPPTFGQGTKVEIERTVAAPSVFIFPPSDEQLKSGTASVVCLLNNFYPREAKVQWKVDNALQSGNSQESVTEQDSKDSTYSLSSTLTLSKADYEKHKVYACEVTHQGLSSPVTKSFNRGEC | – | – | – | 150 relative, GpH7-A5/GpH7-B3/GpL16-k0 = 100
3 | GpH7-A5/GpH7-TA45/GpL16-k0 (antibody, human IgG1, kappa, Anti-glypican-3 IgG1 heterodimer; L234Y/G236W/S298A in H2 only) heavy 1: not shown heavy 2: QVQLVQSGAEVKKPGASVTVSCKASGYTFTDYEMHWIRQPPGEGLEWIGAIDPKTGDTAYSESFQDRVTLTADKSTSTAYMELSSLTSEDTAVYYCTRFYSYTYWGQGTLVTVSSASTKGPSVFPLAPSSKSTSGGTAALGCLVKDYFPEPVTVSWNSGALTSGVHTFPAVLQSSGLYSLSSVVTVPSSSLGTQTYICNVNHKPSNTKVDKKVEPKSCDKTHTCPPCPAPEYLWGPSVFLFPPKPKDTLMISRTPEVTCVVVDVSHEDPEVKFNWYVDGVEVHNAKTKPREEQYNATYRVVSVLTVLHQDWLNGKEYKCKVSNKALPAPIEKTISKAKGQPREPQVYTLPPSRDELTKNQVSLTCLVKGFYPSDIAVEWESNGQPENNYKTTPPVLDSDGSFFLYSKLTVDKSRWQQGNVFSCSVMHEALHNHYTQESLSLSP light: DIVMTQSPLSLPVTPGEPASISCQASESLVHSNRNTYLHWYLQKPGQSPQLLIYKVSNRFSGVPDRFSGSGSGTDFTLKISRVEAEDVGVYYCSQNTHVPPTFGQGTKVEIERTVAAPSVFIFPPSDEQLKSGTASVVCLLNNFYPREAKVQWKVDNALQSGNSQESVTEQDSKDSTYSLSSTLTLSKADYEKHKVYACEVTHQGLSSPVTKSFNRGEC | – | – | 225 relative, GpH7-A5/GpH7-B3/GpL16-k0 = 100 | –
4 | GpH7-TA7/GpH7-B3/GpL16-k0 (antibody, human IgG1, kappa, Anti-glypican-3 IgG1 heterodimer; L234Y/G236W/S298A in H1 only) heavy 1: QVQLVQSGAEVKKPGASVTVSCKASGYTFTDYEMHWIRQPPGEGLEWIGAIDPKTGDTAYSESFQDRVTLTADKSTSTAYMELSSLTSEDTAVYYCTRFYSYTYWGQGTLVTVSSASTKGPSVFPLAPSSKSTSGGTAALGCLVKDYFPEPVTVSWNSGALTSGVHTFPAVLQSSGLYSLSSVVTVPSSSLGTQTYICNVNHKPSNTKVDKKVEPKSCDKTHTCPPCPAPEYLWGPSVFLFPPKPKDTLMISRTPEVTCVVVDVSHEDPEVKFNWYVDGVEVHNAKTKPREEQYNATYRVVSVLTVLHQDWLNGKEYKCKVSNKALPAPIEKTISKAKGQPREPQVYTLPPSRKELTKNQVSLTCLVKGFYPSDIAVEWESNGQPENNYKTTPPVLDSDGSFFLYSKLTVDKSRWQQGNVFSCSVMHEALHNRYTQKSLSLSP heavy 2: not shown light: DIVMTQSPLSLPVTPGEPASISCQASESLVHSNRNTYLHWYLQKPGQSPQLLIYKVSNRFSGVPDRFSGSGSGTDFTLKISRVEAEDVGVYYCSQNTHVPPTFGQGTKVEIERTVAAPSVFIFPPSDEQLKSGTASVVCLLNNFYPREAKVQWKVDNALQSGNSQESVTEQDSKDSTYSLSSTLTLSKADYEKHKVYACEVTHQGLSSPVTKSFNRGEC | 3.8 fold | 5.1 fold | 210 relative, GpH7-A5/GpH7-B3/GpL16-k0 = 100 | 210 relative, GpH7-A5/GpH7-B3/GpL16-k0 = 100
5 | GpH7-TA7/GpH7-TA45/GpL16-k0 (antibody, human IgG1, kappa, Anti-glypican-3 IgG1; The two chains differ only in D356K/H435R and K439E) heavy 1: QVQLVQSGAEVKKPGASVTVSCKASGYTFTDYEMHWIRQPPGEGLEWIGAIDPKTGDTAYSESFQDRVTLTADKSTSTAYMELSSLTSEDTAVYYCTRFYSYTYWGQGTLVTVSSASTKGPSVFPLAPSSKSTSGGTAALGCLVKDYFPEPVTVSWNSGALTSGVHTFPAVLQSSGLYSLSSVVTVPSSSLGTQTYICNVNHKPSNTKVDKKVEPKSCDKTHTCPPCPAPEYLWGPSVFLFPPKPKDTLMISRTPEVTCVVVDVSHEDPEVKFNWYVDGVEVHNAKTKPREEQYNATYRVVSVLTVLHQDWLNGKEYKCKVSNKALPAPIEKTISKAKGQPREPQVYTLPPSRKELTKNQVSLTCLVKGFYPSDIAVEWESNGQPENNYKTTPPVLDSDGSFFLYSKLTVDKSRWQQGNVFSCSVMHEALHNRYTQKSLSLSP heavy 2: QVQLVQSGAEVKKPGASVTVSCKASGYTFTDYEMHWIRQPPGEGLEWIGAIDPKTGDTAYSESFQDRVTLTADKSTSTAYMELSSLTSEDTAVYYCTRFYSYTYWGQGTLVTVSSASTKGPSVFPLAPSSKSTSGGTAALGCLVKDYFPEPVTVSWNSGALTSGVHTFPAVLQSSGLYSLSSVVTVPSSSLGTQTYICNVNHKPSNTKVDKKVEPKSCDKTHTCPPCPAPEYLWGPSVFLFPPKPKDTLMISRTPEVTCVVVDVSHEDPEVKFNWYVDGVEVHNAKTKPREEQYNATYRVVSVLTVLHQDWLNGKEYKCKVSNKALPAPIEKTISKAKGQPREPQVYTLPPSRDELTKNQVSLTCLVKGFYPSDIAVEWESNGQPENNYKTTPPVLDSDGSFFLYSKLTVDKSRWQQGNVFSCSVMHEALHNHYTQESLSLSP light: DIVMTQSPLSLPVTPGEPASISCQASESLVHSNRNTYLHWYLQKPGQSPQLLIYKVSNRFSGVPDRFSGSGSGTDFTLKISRVEAEDVGVYYCSQNTHVPPTFGQGTKVEIERTVAAPSVFIFPPSDEQLKSGTASVVCLLNNFYPREAKVQWKVDNALQSGNSQESVTEQDSKDSTYSLSSTLTLSKADYEKHKVYACEVTHQGLSSPVTKSFNRGEC | 0.37 fold | 0.49 fold | 48 relative, GpH7-A5/GpH7-B3/GpL16-k0 = 100 | –
6 | GpH7-TA7/GpH7-B12/GpL16-k0 (antibody, human IgG1, kappa, Anti-glypican-3 IgG1 heterodimer; L234Y/G236W/S298A in H1, P329R in H2) heavy 1: QVQLVQSGAEVKKPGASVTVSCKASGYTFTDYEMHWIRQPPGEGLEWIGAIDPKTGDTAYSESFQDRVTLTADKSTSTAYMELSSLTSEDTAVYYCTRFYSYTYWGQGTLVTVSSASTKGPSVFPLAPSSKSTSGGTAALGCLVKDYFPEPVTVSWNSGALTSGVHTFPAVLQSSGLYSLSSVVTVPSSSLGTQTYICNVNHKPSNTKVDKKVEPKSCDKTHTCPPCPAPEYLWGPSVFLFPPKPKDTLMISRTPEVTCVVVDVSHEDPEVKFNWYVDGVEVHNAKTKPREEQYNATYRVVSVLTVLHQDWLNGKEYKCKVSNKALPAPIEKTISKAKGQPREPQVYTLPPSRKELTKNQVSLTCLVKGFYPSDIAVEWESNGQPENNYKTTPPVLDSDGSFFLYSKLTVDKSRWQQGNVFSCSVMHEALHNRYTQKSLSLSP heavy 2: not shown light: DIVMTQSPLSLPVTPGEPASISCQASESLVHSNRNTYLHWYLQKPGQSPQLLIYKVSNRFSGVPDRFSGSGSGTDFTLKISRVEAEDVGVYYCSQNTHVPPTFGQGTKVEIERTVAAPSVFIFPPSDEQLKSGTASVVCLLNNFYPREAKVQWKVDNALQSGNSQESVTEQDSKDSTYSLSSTLTLSKADYEKHKVYACEVTHQGLSSPVTKSFNRGEC | – | – | – | 11 relative, GpH7-A5/GpH7-B3/GpL16-k0 = 100
